From CN114539420A (SUZHOU INSTITUTE OF RESEARCH OF PSEUDO UNIV, dated 2022)

Biological target: T1, 重组人B7-H3蛋白 (recombinant human B7-H3-ECD protein, 11188-H08H, SinoBiological) (human, UniProt Q5ZPR3 29-466)
T1 construct: extracellular domain; Bought protein; The EC50 sentence says only 'human B7-H3 protein'; also called 人B7-H3重组蛋白; 重组人B7-H3-ECD蛋白
T1 sequence (looked up): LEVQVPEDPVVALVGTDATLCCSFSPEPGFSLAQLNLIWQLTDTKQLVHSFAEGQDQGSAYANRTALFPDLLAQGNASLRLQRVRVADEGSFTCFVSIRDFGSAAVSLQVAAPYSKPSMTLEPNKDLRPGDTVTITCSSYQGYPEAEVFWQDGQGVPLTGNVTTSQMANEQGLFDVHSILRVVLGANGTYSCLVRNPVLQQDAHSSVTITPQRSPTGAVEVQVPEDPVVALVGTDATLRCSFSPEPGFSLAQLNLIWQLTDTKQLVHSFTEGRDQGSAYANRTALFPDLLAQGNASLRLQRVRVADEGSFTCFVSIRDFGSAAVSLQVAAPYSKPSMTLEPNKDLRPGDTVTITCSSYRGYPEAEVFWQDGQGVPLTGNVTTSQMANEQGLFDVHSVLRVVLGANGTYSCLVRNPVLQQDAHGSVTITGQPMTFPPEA
Experiment: ELISA on recombinant human B7-H3 protein (Fig. 2a, n=3)

EC50: 2.22 ng/mL
B1: 嵌合单克隆抗体10-2#c (chimeric anti-B7-H3 monoclonal antibody) (antibody, human IgG1, V domains shown)
VH: EVQLQQSGPALVKPGTSVKISCKTSGYTFTEYIIHWVKQSHGKSLEWIGGINPNNGGTSYNQKFKGKATLTVDKSSSTAYMELRSLTSEDSAVYYCASRLAPSTAGFAYWGQGTMLTVSS
VL: DIVLTQTPAIMSASPGEKVTMTCRASSSVSYMHWYQQRSGTSPKTWIYDTSKLASGVPGRFSGSGSGTSYSLTISIMEAEDAATYYCQQWSSNPPTFGGGTKLEIK
notes: also called 抗B7-H3单克隆抗体; 嵌合抗体10-2#c
